Data from patent publication US20220170028A1, “NOVEL INTERLEUKIN-2 VARIANTS AND BIFUNCTIONAL FUSION MOLECULES THEREOF” (Cugene Inc, priority 2019, published 2022).
“Also recorded” adds a separate entry of the source.

Experiments:
[1] = tested on: STAT5 phosphorylation in CD4+ Treg cells; assay: STAT5 phosphorylation in CD4+ Treg cells, human PBMC assay by FACS; type: cell-based
From the text: (§1) Single amino acid substitutions were introduced to IL-2 at positions corresponding to amino acids interacting with receptor subunit(s) β or γ or βγ. These substitutions were aimed to reduce IL-2 signaling capacity through the intermediate affinity IL-2Rβγ complex and confer signaling specificity from the high affinity IL-2Rαβγ. IL-2 variants containing single amino acid substitutions were examined for their ability to differentially stimulate STAT5 phosphorylation in CD4 positive Treg and Tconv cells. STAT5 is known to be involved in the downstream signaling cascade upon IL-2 binding to the transmembrane IL-2 receptors. The phosphorylation of STAT5 in defined lymphocyte subpopulations was measured using fresh human peripheral blood mononuclear cells (PBMC) and the forkhead transcription factor FOXP3 was used to identify the Treg population in FACS analysis.
(§2) Briefly, human PBMC were isolated by Ficoll-Hypaque centrifugation from the buffy coat of a healthy donor. PBMC were starved in serum-free MACS buffer at 4° C. for 1 hour. 2×10^5 PBMC were then treated with serial dilutions of test compounds for 30 min at 37° C. Cells were fixed and permeabilized with Foxp3/Transcription Factor Staining Buffer Set (EBIO) by incubating with 1× Foxp3 fixation/permeabilization working solution for 30 minutes and washing with 1× permeabilization buffer. Cells were additionally fixed with Cytofix buffer and permeabilized with Perm Buffer III (BD Biosciences) and then washed. After blocking Fc receptors by adding human TruStain FcX (1:50 dilution), cells were stained with a mixture of anti-CD25-PE, anti-FOXP3-APC, anti-pSTAT5-FITC, and anti-CD4-PerCP-Cy5.5 antibodies at concentrations recommended by the manufacturer for 45 minutes at room temperature. Cells were collected by centrifugation, washed, resuspended in FACS buffer, and analyzed by flow cytometry. The flow cytometry data was gated into CD4+/Foxp3+/CD25^high and CD4+/Foxp3−/CD25^low groups for the Treg and CD4 conventional T cell subsets, respectively. Data are expressed as a percent of pStat5 positive cells in gated population.

[2] = Transient expression level of IL-2 Fc fusion constructs in HEK-293F cells; settings: for expression level (titer): transiently in HEK-293F cells, Example 4
Procedure: The constructs were produced by co-transfecting HEK293-F cells growing in suspension with the mammalian expression vectors using polyethylenimine (PEI, 25,000 MW linear, Polysciences). If there were two or more expression vectors, the vectors were transfected in a 1:1 ratio. For transfection, HEK293 cells were cultivated in serum free FreeStyle™ 293 Expression Medium (ThermoFisher). For production in 1000 ml shaking flasks (working volume 330 mL), HEK293 cells were seeded at a density of 0.8×10^6 cells/ml 24 hours before transfection. A total of 330 μg of DNA expression vectors were mixed with 16.7 ml Opti-mem Medium (ThermoFisher). After addition of 0.33 mg PEI diluted in 16.7 ml Opti-mem Medium, the mixture was vortexed for 15 sec and subsequently incubated for 10 min at room temperature. The DNA/PEI solution was then added to the cells and incubated at 37° C. in an incubator with 8% CO2. Sodium butyrate (Millipore Sigma) was added to the cells at day 4 at a final concentration of […] to help sustain protein expression. After 6 days cultivation, supernatant was collected for purification by centrifugation for 20 min at 2200 rpm. The solution was sterile filtered (0.22 μm filter, Corning). The secreted protein was purified from cell culture supernatants using Protein A affinity chromatography.
(§3) S125I substitution was thus introduced into a number of IL-2 variant Fc fusion molecules. The constructs harboring Ile-125 substitution in IL-2 were expressed using the same vector and in the same culturing conditions as their Ser-125 counterparts and purified using MabSelectSure. The expression level in mg/L and purity assessed by SEC chromatography in aggregation % of exemplary molecules are summarized in Table 6. The two molecules in the same row of Table 6 share the same other amino acid substitution(s) and differ only at residue 125 with either serine or isoleucine. As an example, the SEC chromatogram and SDS-PAGE pictures of P-0447 (SEQ ID NO: 173) and its Ile-125 counterpart P-0511 (SEQ ID NO: 213) were further illustrated in FIGS. 1D and 1E.

[3] = tested on: STAT5 phosphorylation in CD4+ Tconv cells; assay: STAT5 phosphorylation in CD4+ Tconv cells, human PBMC assay by FACS; type: cell-based
From the text: as §1, §2

[4] = tested on: CD4+ Treg vs CD4+ Tconv cells; assay: STAT5 phosphorylation, selectivity / activity profile Treg versus CD4+ Tconv cells, human PBMC; type: cell-based
From the text: as §1, §2
The S125I substitution was then introduced into wild-type IL-2 or IL-2 variants that already harbored 1 or 2 mutations targeting receptor subunit(s) β or γ or βγ. The resulting IL-2 variants containing isoleucine at position 125 were tested for their ability to stimulate STAT5 phosphorylation in Treg and Tconv cells in comparison with their respective serine counterparts at position 125. Table 7 lists the potency and selectivity of IL-2 variants in Treg cells. The two molecules in the same row of Table 7 share the same other amino acid substitution(s) and differ only at position 125 with either serine or isoleucine.

[5] = Aggregate content by size-exclusion chromatography after Protein A purification; type: physicochemical; settings: for Aggregation % (SEC): after MabSelectSure; for aggregates / high-molecular weight species (SEC): Example 4
Procedure: For affinity chromatography each supernatant was loaded on a HiTrap MabSelectSure column (CV=5 mL, GE Healthcare) equilibrated with 25 ml phosphate buffered saline, pH 7.2 (ThermoFisher). Unbound protein was removed by washing with 5 column volumes PBS, pH 7.2 and target protein was eluted with 25 mM sodium citrate, 25 mM sodium chloride, pH 3.2. Protein solution was neutralized by adding 3% of 1 M Tris pH 10.2. Ion exchange chromatography or mix-mode chromatography, including but not limited to CaptoMMC (GE Healthcare), ceramic hydroxyapatite, or ceramic fluoroapatite (Bio-Rad) was also utilized to polish the Protein A material as needed. Target protein was concentrated with an Amicon®Ultra-15 concentrator 10 KDa NMWC (Merck Millipore Ltd.)
The purity and molecular weight of the purified constructs were analyzed by SDS-PAGE with and in the absence of a reducing agent and staining with Coomassie (Imperial® Stain). The NuPAGE® Pre-Cast gel system (4-12% or 8-16% Bis-Tris, ThermoFisher) was used according to the manufacturer's instructions. The protein concentration of purified protein samples was determined by measuring the UV absorbance at 280 nm (Nanodrop Spectrophotometer, ThermoFisher) divided by the molar extinction coefficient calculated on the basis of the amino acid sequence. The aggregate content of the constructs was analyzed on an Agilent 1200 high-performance liquid chromatography (HPLC) system. Samples were injected onto an AdvanceBio size-exclusion column (300 Å, 4.6×150 mm, 2.7 μm, LC column, Agilent) using 150 mM sodium phosphate, pH 7.0 as the mobile phase at 25° C.
as §3

Substance	STAT5 phosphorylation activity in Treg cells (in words) [1]	Expression ([2]; Serine-125 constructs) [mg/L]	STAT5 phosphorylation activity in CD4+ Tconv cells (in words) [3]	Treg Selectivity ([4]; Serine-125 constructs)	Aggregation % (SEC) ([5]; Serine-125 constructs) [%]	expression level (titer) [2]	potency in Treg cells relative to CD4+ Tconv cells [4]	activity profile / selectivity window Treg over CD4+ Tconv (in words) [4]	Expression ([2]; Isoleucine-125 constructs) [mg/L]	Treg Selectivity ([4]; Isoleucine-125 constructs)	Aggregation % (SEC) ([5]; Isoleucine-125 constructs) [%]	aggregates / high-molecular weight species (SEC) [5] [%]
P-0364: IL-2 D20E Fc fusion, SEQ ID NO: 75	ability to induce STAT5 phosphorylation	0.7	largely diminished or abolished	Yes	21.1							
P-0250: wild type IL-2 Fc fusion protein, C-terminal fusion, SEQ ID NO: 71 [reference compound]		3.1		Yes	25.7	around 3 mg/L	about 250 fold					
P-0425: IL-2 L19D Fc fusion, SEQ ID NO: 154	slightly reduced potency	2.6	significantly impaired	Yes	32.6			wide window for selective targeting of Treg subset				
P-0491: IL-2 L19H/S125I Fc fusion, SEQ ID NO: 190	slightly increased potency							without altering Treg selectivity	36.7	Yes	0.6	
P-0447: IL-2 L19H/Q126E Fc fusion, SEQ ID NO: 173	robust biological activity; also recorded: significant potency	7.3	nearly completely abolished; also recorded: largely abolished	Yes	23.7			on par with Benchmark-2				
P-0494: IL-2 D20T/S125I Fc fusion, SEQ ID NO: 193									11.7		0.5	
P-0317: IL-2 D20I/N88R Fc fusion, SEQ ID NO: 96						similarly low level						7.5
P-0495: IL-2 L19Y/S125I/Q126E Fc fusion, SEQ ID NO: 194									23.5	Yes	0.8	
P-0372: IL-2 L19Y Fc fusion, SEQ ID NO: 81	minimally impacted the pSTAT5 activation potency	4.0	largely retained the biological activity	Yes	21.7	4.0 mg/L		modestly improved selective window				21.7
P-0471: IL-2 L19Y/S125I Fc fusion, SEQ ID NO: 183	retained comparable potency		varied significantly			19.3 mg/L			19.3	Yes	1.0	1
P-0492: IL-2 L19D/S125I Fc fusion, SEQ ID NO: 191									13.6	Yes	0	
P-0318: IL-2 D20I/N88I Fc fusion, SEQ ID NO: 97						similarly low level						65
P-0363: IL-2 D20T Fc fusion, SEQ ID NO: 74	ability to induce STAT5 phosphorylation	1.4	largely diminished or abolished		29.4			some or significant biased selective window				
P-0493: IL-2 D20E/S125I Fc fusion, SEQ ID NO: 192									7.9	Yes	1.7	
P-0424: IL-2 L19H Fc fusion, SEQ ID NO: 153		7.7	reduced	Yes	21.4			selective activation of Treg cells over CD4+ Tconv cells				
